Results from patent publication US20150266974A1 (RINAT NEUROSCIENCE, published 2015).

Legend:
human PCSK9 [1] = biological target: T1, human PCSK9 (human, UniProt Q8NBP7 31-692, limits assumed); assay: SPR Biacore 3000, KD at pH 5.5 over KD at pH 7.4
T1 construct: also called hPCSK9; huPCSK9
From the text: (§1) These antibodies were expressed and purified for determination of their KD at 7.4 and their KD ratio of pH5.5/pH 7.4, as measured on a surface plasmon resonance Biacore 3000 biosensor equipped with a research-grade sensor chip using HBS-EP running buffer (Biacore AB, Uppsala, Sweden—now GE Healthcare). Rabbit polyclonal anti-Ms IgGs were amine-coupled at saturating levels onto the chip using a standard N-hydroxysuccinimide/ethyldimethylaminopropyl carbodiimide (NHS/EDC) chemistry. The buffer was switched to HBS-EP+1 mg/mL BSA+1 mg/mL CM-dextran. Full-length PCSK9 IgGs were diluted to about 15 μg/mL and captured for 1 min at 5 μL/min to give levels of about 500 RU per flow cell, leaving one blank to serve as a reference channel. […] Dissociation was monitored for 5 min. The chip was regenerated after the last injection of each titration with two 30 sec pulses of 100 mM phosphoric acid. Buffer cycles provided blanks for double-referencing the data, which were then fit globally to a simple binding model using Biaevaluation software v.4.1. Affinities were deduced from the quotient of the kinetic rate constants (KD=koff/kₒₙ).

mouse PCSK9 [2] = biological target: T2, mouse PCSK9 (mouse, UniProt Q80W65 35-694, limits assumed); assay: SPR Biacore 3000, KD at pH 5.5 over KD at pH 7.4
T2 construct: also called mPCSK9; msPCK9
From the text: as §1

human PCSK9 [3] = biological target: T1, human PCSK9; assay: SPR Biacore 3000, captured IgG, hPCSK9 injected, pH 5.5
From the text: as §1

human PCSK9 [4] = biological target: T1, human PCSK9; assay: SPR Biacore 3000, captured IgG, hPCSK9 injected, pH 7.4
From the text: as §1

mouse PCSK9 [5] = biological target: T2, mouse PCSK9; assay: SPR Biacore 3000, captured IgG, mPCSK9 injected, pH 5.5
From the text: as §1

mouse PCSK9 [6] = biological target: T2, mouse PCSK9; assay: SPR Biacore 3000, captured IgG, mPCSK9 injected, pH 7.4
From the text: as §1

T1 sequence (Q8NBP7 31-692 limits assumed): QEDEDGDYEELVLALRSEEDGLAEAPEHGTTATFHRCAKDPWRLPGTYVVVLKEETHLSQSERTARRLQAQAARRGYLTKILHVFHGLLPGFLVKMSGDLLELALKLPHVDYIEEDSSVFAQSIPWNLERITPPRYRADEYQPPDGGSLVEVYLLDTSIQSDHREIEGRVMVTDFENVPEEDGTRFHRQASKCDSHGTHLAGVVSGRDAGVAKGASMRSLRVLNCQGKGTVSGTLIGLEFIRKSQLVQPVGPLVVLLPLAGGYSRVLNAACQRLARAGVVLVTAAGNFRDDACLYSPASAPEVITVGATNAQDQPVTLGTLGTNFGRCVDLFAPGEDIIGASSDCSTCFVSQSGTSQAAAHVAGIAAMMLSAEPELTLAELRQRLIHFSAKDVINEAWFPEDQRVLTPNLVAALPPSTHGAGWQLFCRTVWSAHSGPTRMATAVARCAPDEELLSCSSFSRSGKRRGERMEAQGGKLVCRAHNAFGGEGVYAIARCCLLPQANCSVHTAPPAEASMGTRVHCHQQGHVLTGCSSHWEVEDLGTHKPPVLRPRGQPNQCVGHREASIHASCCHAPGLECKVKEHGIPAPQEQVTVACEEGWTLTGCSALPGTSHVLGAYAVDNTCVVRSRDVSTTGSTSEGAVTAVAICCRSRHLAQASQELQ
T2 sequence (Q80W65 35-694 limits assumed): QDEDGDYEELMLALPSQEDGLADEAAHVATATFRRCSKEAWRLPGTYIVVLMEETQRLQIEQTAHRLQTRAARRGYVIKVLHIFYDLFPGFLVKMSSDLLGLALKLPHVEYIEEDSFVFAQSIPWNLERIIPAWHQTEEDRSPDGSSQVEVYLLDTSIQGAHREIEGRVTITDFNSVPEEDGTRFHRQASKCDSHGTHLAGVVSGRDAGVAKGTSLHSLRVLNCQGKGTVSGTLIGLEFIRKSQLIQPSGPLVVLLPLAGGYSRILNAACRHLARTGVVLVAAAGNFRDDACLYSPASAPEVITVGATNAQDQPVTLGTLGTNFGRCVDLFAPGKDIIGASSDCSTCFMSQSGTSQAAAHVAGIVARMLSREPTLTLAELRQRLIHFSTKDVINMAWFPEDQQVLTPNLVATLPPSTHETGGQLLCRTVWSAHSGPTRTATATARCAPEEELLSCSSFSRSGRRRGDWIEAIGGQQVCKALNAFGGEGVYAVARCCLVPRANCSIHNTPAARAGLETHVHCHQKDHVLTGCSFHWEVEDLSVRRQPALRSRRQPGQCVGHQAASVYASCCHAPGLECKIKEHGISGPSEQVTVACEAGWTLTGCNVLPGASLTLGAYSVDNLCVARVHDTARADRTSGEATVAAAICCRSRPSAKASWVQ

Binder | KD ratio pH 5.5/7.4 (human PCSK9 [1]) | KD ratio pH 5.5/7.4 (mouse PCSK9 [2]) | Kd (human PCSK9 [3]) [nM] | koff (human PCSK9 [3]) [s⁻¹] | kon (human PCSK9 [3]) [M⁻¹ s⁻¹] | Kd (human PCSK9 [4]) [nM] | koff (human PCSK9 [4]) [s⁻¹] | kon (human PCSK9 [4]) [M⁻¹ s⁻¹] | Kd (mouse PCSK9 [5]) [nM] | koff (mouse PCSK9 [5]) [s⁻¹] | kon (mouse PCSK9 [5]) [M⁻¹ s⁻¹] | Kd (mouse PCSK9 [6]) [nM] | koff (mouse PCSK9 [6]) [s⁻¹] | kon (mouse PCSK9 [6]) [M⁻¹ s⁻¹]
6L21H2335 (antibody, V domains shown) VH: QVQLVQSGAEVKKPGASVKVSCKASGYTFTSYYMHWVRQAPGQGLEWMGEIHPFGGRTNYNEKFKSRVTMTRDTSTSTVYMELSSLRSEDTAVYYCARERPLHASDLWGQGTTVTVSS VL: DIQMTQSPSSLSASVGDRVTITCRASQGISSALAWYQQKPGKAPKLLIYHASYRYTGVPSRFSGSGSGTDFTFTISSLQPEDIATYYCQQRYSLWRTFGQGTKLEIK | 2.9 | 2.4 | 363 | 0.238 | 655000 | 126 | 0.00733 | 58100 | 451 | 0.237 | 526000 | 191 | 0.0172 | 89900
5L1724H23_6L3H3 (antibody, V domains shown, Only CDRs printed; Full-length IgG) VH: QVQLVQSGAEVKKPGASVKVSCKASGYTFTSYYMHWVRQAPGQGLEWMGEIHPSGGRTNYNEKFKSRVTMTRDTSTSTVYMELSSLRSEDTAVYYCARERPLYASDLWGQGTTVTVSS VL: DIQMTQSPSSLSASVGDRVTITCKASQDVHTAVAWYQQKPGKAPKLLIYSASHRYTGVPSRFSGSGSGTDFTFTISSLQPEDIATYYCQQRYSLWRTFGQGTKLEIK | 5.5 | 9.6 | 83 | 0.00789 | 95500 | 15 | 0.000342 | 22300 | 125 | 0.0263 | 211000 | 13 | 0.000827 | 63100
5L1721H23_6L3 (antibody, V domains shown, Tested as full-length IgG; also called heavy UC-H5H23, light UC-H5L1721-6L3) VH: QVQLVQSGAEVKKPGASVKVSCKASGYTFTSYYMHWVRQAPGQGLEWMGEIHPSGGRTNYNEKFKSRVTMTRDTSTSTVYMELSSLRSEDTAVYYCARERPLYAMDYWGQGTTVTVSS VL: DIQMTQSPSSLSASVGDRVTITCKASQDVHTAVAWYQQKPGKAPKLLIYHASYRYTGVPSRFSGSGSGTDFTFTISSLQPEDIATYYCQQRYSLWRTFGQGTKLEIK | 37.2 | 29.1 | 257 | 0.0166 | 64500 | 6.9 | 0.000214 | 30900 | 408 | 0.0428 | 105000 | 14 | 0.000676 | 47500

These reach a lower Kd (human PCSK9 [3]). Values come first.

KD ratio pH 5.5/7.4 (human PCSK9 [1]) | KD ratio pH 5.5/7.4 (mouse PCSK9 [2]) | Kd (human PCSK9 [3]) [nM] | koff (human PCSK9 [3]) [s⁻¹] | kon (human PCSK9 [3]) [M⁻¹ s⁻¹] | Kd (human PCSK9 [4]) [nM] | koff (human PCSK9 [4]) [s⁻¹] | kon (human PCSK9 [4]) [M⁻¹ s⁻¹] | Kd (mouse PCSK9 [5]) [nM] | koff (mouse PCSK9 [5]) [s⁻¹] | kon (mouse PCSK9 [5]) [M⁻¹ s⁻¹] | Kd (mouse PCSK9 [6]) [nM] | koff (mouse PCSK9 [6]) [s⁻¹] | kon (mouse PCSK9 [6]) [M⁻¹ s⁻¹] | Binder
2.3 | 2 | 5.1 | 0.00084 | 166000 | 2.2 | 7.08e-05 | 32900 | 5.2 | 0.00177 | 338000 | 2.6 | 0.000228 | 88000 | 6L1721 (antibody, V domains shown, L1L3-based mutant; Tested as full-length IgG) VH: QVQLVQSGAEVKKPGASVKVSCKASGYTFTSYYMHWVRQAPGQGLEWMGEISPFGGRTNYNEKFKSRVTMTRDTSTSTVYMELSSLRSEDTAVYYCARERPLYASDLWGQGTTVTVSS VL: DIQMTQSPSSLSASVGDRVTITCRASQGIHSALAWYQQKPGKAPKLLIYHASYRYTGVPSRFSGSGSGTDFTFTISSLQPEDIATYYCQQRYSLWRTFGQGTKLEIK
6 | 5 | 24 | 0.00261 | 110000 | 4 | 0.000201 | 50200 | 36 | 0.00729 | 204000 | 7.2 | 0.000469 | 64800 | 6L1721H23 (antibody, V domains shown, L1L3-based mutant; Full-length IgG) VH: QVQLVQSGAEVKKPGASVKVSCKASGYTFTSYYMHWVRQAPGQGLEWMGEIHPFGGRTNYNEKFKSRVTMTRDTSTSTVYMELSSLRSEDTAVYYCARERPLYASDLWGQGTTVTVSS VL: DIQMTQSPSSLSASVGDRVTITCRASQGIHSALAWYQQKPGKAPKLLIYHASYRYTGVPSRFSGSGSGTDFTFTISSLQPEDIATYYCQQRYSLWRTFGQGTKLEIK
